Target: T1, ScPif1 (Saccharomyces cerevisiae, UniProt P07271 40-859)
T1 sequence: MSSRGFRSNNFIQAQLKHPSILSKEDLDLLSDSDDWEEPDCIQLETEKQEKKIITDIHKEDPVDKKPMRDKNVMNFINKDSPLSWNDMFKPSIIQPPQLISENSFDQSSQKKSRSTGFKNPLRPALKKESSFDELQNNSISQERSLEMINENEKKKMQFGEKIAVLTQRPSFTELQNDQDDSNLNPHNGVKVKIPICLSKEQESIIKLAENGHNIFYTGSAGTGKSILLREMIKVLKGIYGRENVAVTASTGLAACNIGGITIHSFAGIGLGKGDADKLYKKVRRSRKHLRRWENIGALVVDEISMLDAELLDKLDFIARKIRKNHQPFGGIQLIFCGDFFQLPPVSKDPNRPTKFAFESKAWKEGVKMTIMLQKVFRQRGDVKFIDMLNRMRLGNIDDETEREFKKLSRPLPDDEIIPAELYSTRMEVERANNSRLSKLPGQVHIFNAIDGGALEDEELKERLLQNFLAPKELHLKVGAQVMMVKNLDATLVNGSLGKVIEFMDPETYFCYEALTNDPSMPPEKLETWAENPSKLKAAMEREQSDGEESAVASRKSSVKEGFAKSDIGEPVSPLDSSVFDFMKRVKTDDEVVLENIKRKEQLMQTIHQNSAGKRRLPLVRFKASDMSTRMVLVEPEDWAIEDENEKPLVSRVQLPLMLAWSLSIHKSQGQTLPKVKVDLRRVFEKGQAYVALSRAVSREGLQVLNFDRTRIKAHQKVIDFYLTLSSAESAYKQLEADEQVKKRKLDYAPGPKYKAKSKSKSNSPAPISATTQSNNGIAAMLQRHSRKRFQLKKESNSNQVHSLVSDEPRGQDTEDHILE
Test: filter binding

CGGCCCGGCGGTCCGCGGTC (ssDNA) [G-rich 20-mer (GR)] was tested, and the Kd was 0.04 nM.

With CAAAGGACCCTTTGTGGATC (ssDNA) [non-G-rich 20-mer (NG)] the Kd was 0.2 nM.

— PMC3680789
